How the values were obtained:
Assay type in all cases: cell-based, Saccharomyces cerevisiae
BOI2 = experiment: DHFR-PCA on solid medium, bait BOI2 (Fig. 1B); conditions: bait BOI2, label = prey; for medrep (log2 median colony size normalized to plate background, PCA score): 3-8 replicates; for Ratio (SH3-deleted/WT medrep): only significant differences showed, PPIs completely lost have a ratio of 0.1 and the gained PPIs 2.5
Description: (§1) Supplement 41467_2021_21873_MOESM8_ESM.xlsx, sheet "Fig1B" | column: medsize; medrep; Ratio; Score

BEM1-1 = experiment: DHFR-PCA on solid medium, bait BEM1-1 (Fig. 1B); conditions: bait BEM1-1, label = prey; 2-8 replicates
Description: as §1

BEM1-2 = experiment: DHFR-PCA on solid medium, bait BEM1-2 (Fig. 1B); conditions: bait BEM1-2, label = prey; for medrep (log2 median colony size normalized to plate background, PCA score): 2-8 replicates; for Ratio (SH3-deleted/WT medrep): only significant differences showed, PPIs completely lost have a ratio of 0.1 and the gained PPIs 2.5
Description: as §1

BOI1 = experiment: DHFR-PCA on solid medium, bait BOI1 (Fig. 1B); conditions: bait BOI1, label = prey; for medrep (log2 median colony size normalized to plate background, PCA score): 3-8 replicates
Description: as §1

[1] = system: 575 putative partners (preys) of 22 WT SH3-containing proteins; experiment: DHFR-PCA on solid medium, WT and SH3-deleted baits (Fig. 1B); set-up: key to Score: 0: SH3-independent; 1: SH3-dependent PPIs; 2: SH3-inhibited PPIs; conditions: for medrep (log2 median colony size normalized to plate background, PCA score): label = prey
How it was run: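 In S. cerevisiae, 22 SH3-containing baits fused genomically to DHFR F[1,2], either WT or with each SH3 replaced via CRISPR by a poly-Gly/Ser linker, screened against 575 DHFR F[3] preys plus 40 negative controls in 1536 arrays, preys duplicated at randomized positions.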

ABP1 = experiment: DHFR-PCA on solid medium, bait ABP1 (Fig. 1B); conditions: bait ABP1, label = prey; 2-4 replicates
Description: as §1

BBC1 = experiment: DHFR-PCA on solid medium, bait BBC1 (Fig. 1B); conditions: bait BBC1, label = prey
Description: as §1

[2] = only significant differences showed, PPIs completely lost have a ratio of 0.1 and the gained PPIs 2.5

Molecule | medrep (log2 median colony size normalized to plate background, PCA score) (BOI2) | Ratio (SH3-deleted/WT medrep) (BOI2) | medrep (log2 median colony size normalized to plate background, PCA score) (BEM1-1) | medrep (log2 median colony size normalized to plate background, PCA score) (BEM1-2) | Ratio (SH3-deleted/WT medrep) (BEM1-2) | medrep (log2 median colony size normalized to plate background, PCA score) (BOI1) | Ratio (SH3-deleted/WT medrep) (BOI1; [2]) | medrep (log2 median colony size normalized to plate background, PCA score) ([1]; bait SLA1-2, DHFR-PCA, Replicates 4 (2 for YCR009C, YDR388W)) | Score ([1]; bait SLA1-2, label = prey) | Ratio (SH3-deleted/WT medrep) ([1]; bait SLA1-2, label = prey, only significant differences shown, PPIs completely lost have a ratio of 0.1, gained PPIs 2.5) | medrep (log2 median colony size normalized to plate background, PCA score) ([1]; bait SLA1-3, DHFR-PCA, Replicates 4 (2 for YCR009C, YDR388W, YIL033C)) | Score ([1]; bait SLA1-3, label = prey) | medrep (log2 median colony size normalized to plate background, PCA score) (ABP1) | medrep (log2 median colony size normalized to plate background, PCA score) (BBC1; 2-4 replicates) | Ratio (SH3-deleted/WT medrep) (BBC1; [2])
YDR166C (protein, UniProt P89102 1-971, looked up) Exocyst complex component SEC5: MDRFQIGDEQLLRFYQLKTINPTHSWAQDSSKLNNEEATSNELGVETSFDILKDFKYGNQISIDKESRAYLNDESLSYIRDPLNGQEMSKELQHLPNDSMRLNYLVNSKQFNVKAFLRDMHKQDSFNDLNNSLDRLDSDIQDQSIHLKQLVGKNFTKYVKIKNKLDQIYKEFDEKTNEKNQCDSPKENQINVESLNKKVDEVIRTTTFKLKPLMDNYQKILNYQATKKFIELNKFYFNLPKSLKRCLTNNDFNEFIIEYSKGLTLRRRFNQSSDASQSLVIKRIWTQIENLLVTYKDLIWNSLINSNFNIDQPQETILSLFSKLLNLENFINNNQRESESGNKNTTSSSNENPILRWMSIKMNGFQNELNELSGHMISKIIHSQRLILQNNTNQDKSQGCVELSYYLKINQLFQIISDTGKDSEGLKSTVEPNKVNTISGTSYLNLNCQPSSQGLTDSPTIIEMWLLILKYINDLWKICDQFIEFWEHIEKFLDGTYQNSIINEKRKENILIGDSNIIESYQKSLILKEEQINEVRLKGEEFITSVSQNLISFFTSSQSSLPSSLKDSTGDITRSNKDSGSPLDYGFIPPNCNGLSCLRYLPKIVEPILKFSTELAQLNITTNGITICRNTLSTIINRCVGAISSTKLRDISNFYQLENWQVYETVTFSSKSQDSSKNLTFEYGVTQFPEIVTSFQEVSIKTTRDLLFAYEKLPIINGISVVSYPSKQLLTGIEIQQIISMEAVLEAILKNAAKDKDNPRNSHTILTLTNLQYFRECAFPNILQYFDDAFEWNLASKNLELFSLLSKMESSIFGNYLSDLKINLRDTLEEKFHEINWPMYTSNSFRVGDYIIEALMILIVVHSECFRIGPQLIHKILIETQIFIARYLFEAFKPYVGNLSNDGSLQIIVDLEFFQKVMGPLLEKDTEATLRACLQNCFQNDTNRLQKCINEINPIVSANLKRTAIQFAAFS | 1.688 | 0.1 | 2.981 | 2.981 | 0.1 | – | – | – | – | – | – | – | – | – | –
YAL041W (protein, UniProt P11433 1-854, looked up) Cell division control protein …: MAIQTRFASGTSLSDLKPKPSATSISIPMQNVMNKPVTEQDSLFHICANIRKRLEVLPQLKPFLQLAYQSSEVLSERQSLLLSQKQHQELLKSNGANRDSSDLAPTLRSSSISTATSLMSMEGISYTNSNPSATPNMEDTLLTFSMGILPITMDCDPVTQLSQLFQQGAPLCILFNSVKPQFKLPVIASDDLKVCKKSIYDFILGCKKHFAFNDEELFTISDVFANSTSQLVKVLEVVETLMNSSPTIFPSKSKTQQIMNAENQHRHQPQQSSKKHNEYVKIIKEFVATERKYVHDLEILDKYRQQLLDSNLITSEELYMLFPNLGDAIDFQRRFLISLEINALVEPSKQRIGALFMHSKHFFKLYEPWSIGQNAAIEFLSSTLHKMRVDESQRFIINNKLELQSFLYKPVQRLCRYPLLVKELLAESSDDNNTKELEAALDISKNIARSINENQRRTENHQVVKKLYGRVVNWKGYRISKFGELLYFDKVFISTTNSSSEPEREFEVYLFEKIIILFSEVVTKKSASSLILKKKSSTSASISASNITDNNGSPHHSYHKRHSNSSSSNNIHLSSSSAAAIIHSSTNSSDNNSNNSSSSSLFKLSANEPKLDLRGRIMIMNLNQIIPQNNRSLNITWESIKEQGNFLLKFKNEETRDNWSSCLQQLIHDLKNEQFKARHHSSTSTTSSTAKSSSMMSPTTTMNTPNHHNSRQTHDSMASFSSSHMKRVSDVLPKRRTTSSSFESEIKSISENFKNSIPESSILFRISYNNNSNNTSSSEIFTLLVEKVWNFDDLIMAINSKISNTHNNNISPITKIKYQDEDGDFVVLGSDEDWNVAKEMLAENNEKFLNIRLY | 3.947 | – | 4.862 | 4.862 | – | 2.673 | – | – | – | – | – | – | – | – | –
YDR379W (protein, UniProt Q06407 1-1009, looked up) Rho-type GTPase-activating …: MSADPINDQSSLCVRCNKSIASSQVYELESKKWHDQCFTCYKCDKKLNADSDFLVLDIGTLICYDCSDKCTNCGDKIDDTAIILPSSNEAYCSNCFRCCRCSNRIKNLKYAKTKRGLCCMDCHEKLLRKKQLLLENQTKNSSKEDFPIKLPERSVKRPLSPTRINGKSDVSTNNTAISKNLVSSNEDQQLTPQVLVSQERDESSLNDNNDNDNSKDREETSSHARTVSIDDILNSTLEHDSNSIEEQSLVDNEDYINKMGEDVTYRLLKPQRANRDSIVVKDPRIPNSNSNANRFFSIYDKEETDKDDTDNKENEIIVNTPRNSTDKITSPLNSPMAVQMNEEVEPPHGLALTLSEATKENNKSSQGIQTSTSKSMNHVSPITRTDTVEMKTSTSSSTLRLSDNGSFSRPQTADNLLPHKKVAPSPNKKLSRSFSLKSKNFVHNLKSKTSEMLDPKHPHHSTSIQESDTHSGWGVSSTHTNIRKSKAKKNPVSRGQSDSTIYNTLPQHGNFTVPEFNHKKAQSSLGSISKKQNSNDTATNRRINGSFTSSSSGHHIAMFRTPPLESGPLFKRPSLSSESAHHRSSSLQTSRSTNALLEDDSTKVDATDESATSLEKDFYFTELTLRKLKLDVRELEGTKKKLLQDVENLRLAKERLLNDVDNLTREKDKQSASSRESLEQKENIATSITVKSPSSNSDRKGSISNASPKPRFWKIFSSAKDHQVGDLESQQRSPNSSSGGTTNIAQKEISSPKLIRVHDELPSPGKVPLSPSPKRLDYTPDGSHLYGSSLQARCAYEKSTVPIIIRCCIDRIEKDDIGLNMEGLYRKSGSQTLVEEIENEFAQNNSLHSDTLSPKLNALLNQDIHAVASVLKRYLRKLPDPVLSFSIYDALIDLVRNNQLIERLPLNNDKFLDSPQKVTIYEMVLKSLLEIFKILPVEHQEVLKVLAAHIGKVRRCSERNLMNLHNLSLVFAPSLIHDFDGEKDIVDMKERNYIVEFILGNYRDIFKQA | 2.382 | – | 2.957 | 2.957 | 0.1 | 1.407 | 2.5 | – | – | – | – | – | – | – | –
YKR048C (protein, UniProt P25293 1-417, looked up) Nucleosome assembly protein: MSDPIRTKPKSSMQIDNAPTPHNTPASVLNPSYLKNGNPVRAQAQEQDDKIGTINEEDILANQPLLLQSIQDRLGSLVGQDSGYVGGLPKNVKEKLLSLKTLQSELFEVEKEFQVEMFELENKFLQKYKPIWEQRSRIISGQEQPKPEQIAKGQEIVESLNETELLVDEEEKAQNDSEEEQVKGIPSFWLTALENLPIVCDTITDRDAEVLEYLQDIGLEYLTDGRPGFKLLFRFDSSANPFFTNDILCKTYFYQKELGYSGDFIYDHAEGCEISWKDNAHNVTVDLEMRKQRNKTTKQVRTIEKITPIESFFNFFDPPKIQNEDQDEELEEDLEERLALDYSIGEQLKDKLIPRAVDWFTGAALEFEFEEDEEEADEDEDEEEDDDHGLEDDDGESAEEQDDFAGRPEQAPECKQS | 1.303 | 2.5 | – | – | – | – | – | 1.303 | 1 | 0.1 | 1.303 | 0 | 3.939 | 1.806 | 0.1
YER114C (protein) PMYIAINEYFKRMEDELDMKPGDKIKVITDDEEYKDGWYFGRNLRTNEEGLYPVVFTQKIT | 3.383 | – | 2.85 | 2.85 | 0.1 | – | – | – | – | – | – | – | – | – | –
